Test results published in the supplement of paper PMC10567573.

B1: MYBL2 (parent)
chain: FSPSQFLNFWNKQDTLELESPSLT
B2: KRT34 (parent)
chain: PTVDLNQVLNETRSQYEALVETNR

Variants of: B1
Assay: protein stability index of a GFP-peptide fusion (GPS, HEK-293T) (PSI 1-6); higher = more stable
Settings: c terminus: a fixed tail appended
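Also: lentivirally expressed fusions sorted by FACS into six bins by GFP to DsRed ratio, PSI derived from sequencing read proportions per bin multiplied by bin number.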

Protein stability index: each site, then its substitutions
P3: Y 3.74; S 2.18; K 2.02; V 1.77; T 2.94; W 2.18; N 2.38; M 2.3; I 3.19; F 3.08; L 2.69; D 3.71; A 3.83; Q 3.52; G 2.41; H 1.94; R 2.39; E 1.6
Q5: A 2.55
S4: T 3.36; Y 2.98; L 2.12; N 3.63; E 2; I 4.06; H 2; G 4.19; M 3.27; K 2.53; C 2.91; Q 4.58; V 2.57; D 1.79; F 3.04; P 2.14; W 2.35; A 2.14
S2: A 2.65; V 3.06; K 1.99; L 2.79; T 3; E 2.08; Q 2.71; Y 1.63; C 2.66; M 3.62; H 3.45; P 2.13; W 2.98; F 2.14; I 3.87; D 1.92; N 2.38; R 2.26
F1: E 4.58; C 2.62; R 3.06; G 2.83; K 3.75; S 4.11; D 4.27; H 2.13; I 3; W 2.73; N 3.3; A 3.77; Y 4.39; P 4.2; Q 3.74; M 3.3; L 3.51; V 3.72; T 3.75

Variants of: B2
Assay: as above
Settings: c terminus: a fixed tail appended

Protein stability index, by site and new letter:
E11: N 3.69; F 3.22; M 3.95; C 3.91; L 3.36; W 3.15; T 3.78; Y 3.72; R 4.03; P 4.1; I 3.42; S 3.85; A 4.06; D 3.81; Q 3.93; G 4.05; H 4.18; V 4.44; K 3.79
S14: H 3.32; C 2.25; W 2.74; Q 2.34; Y 3.33; I 2.44; P 4.1; L 2.12; F 3.3; R 2.15; K 2.47; V 2.82; T 2.96; A 2.09; E 2.23; G 3.56; M 1.65; D 2.87
Q15: E 4.16; G 4.19; C 2.94; V 3.19; F 2.82; Y 2.91; A 4; N 4.02; P 4.34; W 1.94; I 2.96; R 4.16; L 2.25; K 3.89; D 5.05; S 4.38; H 3.78; M 2.35
T12: E 4.27; R 4.28; C 3.49; P 4.12; S 3.54; F 2.4; G 4.39; A 1.8; V 3.04; H 1.75; Q 2.21; N 4.03; K 4; D 5.22; I 1.84
N10: W 3.02; Y 2.91
R13: S 4.67; D 5.18; G 4.52; N 5.01; V 3.42; E 5.07; P 4.79; Q 3.97; T 4.27; H 3.46; L 3.34; W 3.71; A 3.85; K 3.31; C 3.57; F 3.07; I 2.83; Y 3.64
E21: G 4.06; A 3.84; F 2.74; Q 4.3; L 3.56; W 2.62; Y 3.62; K 4.3; R 3.62; C 3.55; H 3.76; S 4.02; P 4.19; T 3.74; D 3.64; V 3.49; I 3.23; N 3.83; M 3.92
V20: N 4.42; W 3.83; F 3.64; C 3.68; E 3.52; L 4.04; K 4.86; Y 4.09; Q 4.5; I 4; H 4.77; T 4.25; M 3.58; P 4.91; G 4.44; D 4.71; R 4.9; A 2.68; S 3.98
A18: F 3.59; P 4.6; H 4.4; S 3.32; V 4.01; E 3.69; T 3.81; N 3.3; Q 3.78; K 3.16; L 3.66; I 3.7; W 3.5; D 3.92; Y 3.6; G 4.03; M 3.74; C 4.01; R 2.31
T22: G 4.41; Y 4.23; I 1.68; N 4.39; P 4.28; H 3.99; A 4.01; F 3.78; L 2.54; C 3.62; E 4.11; W 4.02; M 3.19; K 3.66; V 1.71; S 4.36; D 4.58; R 4.46
Y16: G 4.89; L 4.19; T 4.58; K 4.57; C 4.44; S 4.98; Q 5.57; P 4.8; E 5.44; V 4.9; W 3.63; F 3.65; I 4.23; H 5.25; D 5.26; N 4.99; R 5.42; A 5.1; M 4.76
E17: R 3.83; N 4.05; I 2.71; A 3.77; W 3.35; S 3.85; G 4.02; K 4.12; V 3.7; P 3.62; L 3.85; F 3.08; H 3.93; M 3.68; D 4.67; T 4.23; Q 3.88; Y 3.22; C 2.93
R24: V 2.17; N 4.74; L 2.68; D 4.95; Q 4.18; T 3.8; P 4.58; F 2.5; S 4.81; G 4.17; A 3.51; Y 2.29; C 2.56; K 4.32; H 4.08; E 3.88; M 2.51; W 3.55; I 3.11
N23: E 5.16; Y 3.52; S 4.39; I 2.79; P 4.04; T 3.99; K 3.95; M 3.12; A 4.03; R 4.11; L 2.41; G 4.04; D 5.04; V 3; W 2.53; Q 4.52; H 4.05; F 3.71; C 3.47
L19: D 5.03; E 5.63; M 3.84; Q 4.63; K 5.17; S 4.99; W 3.98; G 5.03; T 4.5; N 5.01; H 4.75; F 3.51; Y 4.39; A 4.47; R 4.81; C 4.72; V 4.44; I 4.16; P 4.7
